Results taken from patent EP2842965A1, “Neuromedin U analogs comprising serum albumin binding amino acid residue” (Gubra ApS, priority 2013, dated 2015).
Blank lines part the entries; values can stand above or below the molecule they belong to. Starred links: 1 amine or outer side, 2 acyl side, 3 side chain; linkers in the order of their positions; H or OH if unused. Residues, ends and D or L forms follow the SMILES beside them. Groups on a side chain read outwards from the residue. No end group written: not given here. *: point of attachment. γGlu = O=C(O)[C@H](CCC(=O)[*:2])N[*:1]; Palmitoyl = CCCCCCCCCCCCCCCC(=O)*

How the values were obtained:
[1] = target: T1, Neuromedin U receptor 2 (NMUR2) (Homo sapiens, UniProt Q9GZQ4); assay: Functional assay (IP3 SPA-ysi assay) in HEK293 cells transfected with NMUR2; format: cell-based; settings: HEK293 cells transiently transfected with NMUR2; head says cAMP, method describes IP3 SPA readout
T1 construct: expressed in transfected cells; host or cells: HEK293 cells, transient calcium phosphate transfection; the empty-vector control is pcDNA3
T1 sequence (Q9GZQ4 whole entry): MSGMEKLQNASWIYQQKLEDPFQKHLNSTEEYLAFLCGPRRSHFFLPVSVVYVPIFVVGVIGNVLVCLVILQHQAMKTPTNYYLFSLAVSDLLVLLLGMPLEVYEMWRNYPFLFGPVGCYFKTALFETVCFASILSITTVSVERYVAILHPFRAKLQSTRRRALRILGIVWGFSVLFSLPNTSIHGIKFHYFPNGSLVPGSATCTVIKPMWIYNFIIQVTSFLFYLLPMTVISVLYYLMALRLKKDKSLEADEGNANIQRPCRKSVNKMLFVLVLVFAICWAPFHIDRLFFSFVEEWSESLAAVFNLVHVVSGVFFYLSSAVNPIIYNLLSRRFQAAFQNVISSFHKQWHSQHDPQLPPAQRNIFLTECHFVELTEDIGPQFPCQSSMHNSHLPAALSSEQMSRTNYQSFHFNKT
Procedure: All compounds were dissolved in dimethyl sulfoxide (DMSO), and then water was added (total DMSO conc. was 80%). The stock concentration was 1 mM for all the compounds. Stocks were alliquoted and frozen -20°C.
The day before each assay a new standard row was prepared by dilution of the stock solution in assay buffer (1 mM acetic acid + 0.1% bovine serum albumin (BSA)). The following concentrations were prepared (depending on the ligand potency): 10^-5, 10^-6, 10^-7, 10^-7.5, 10^-8, 10^-8.5, 10^-9, 10^-10, 10^-11, 10^-12 M.
Cell cultures: The HEK293 cells are grown in (DMEM31966 glutamax supplemented with 10% FBS (fetal bovine serum) and 1% penicillin G and streptomycin) and incubated at 37°C with 10% CO2 in a humidified atmosphere. The cells were split as follows. HEK293 cells approximately 80% confluent was used. The cells were removed from the bottom of the bottle by removing the media (DMEM31966 glutamax supplemented with 10% FBS and 1% penicillin G and streptomycin), rinsed with 5 mL phosphate buffered saline (PBS) and shaken gently. The PBS was removed and cells were released from the bottom with trypsin (1-2 mL) and incubated for 2-3 min. The flasks were then turned gently to ensure complete release of the cells from the bottom. Then media was added to the cells, (5-8 mL was used to rinse the cells of the bottom, this process was repeated approximately 4 times using the same media). Cell suspension was then transferred to a new bottle (approximately 4 × 10^6 cells per 175 cm^2 flask) and 20 mL media was added. Cells were incubated at 37°C with 10% CO2 in a humidified atmosphere.
Transfection of cells: HEK293 cells were seeded out at the density of 8 × 10^6 cells per 175 cm^2 flask 1 day prior to the transfection. Before transfection of cells, the culture medium was aspirated and half of the standard volume was added. 40 µg receptor-containing plasmid (Neuromedin U receptor 1 (NMUR1) or Neuromedin U receptor 2 (NMUR2)) or "empty" vector plasmid (pcDNA3), as a negative control, was mixed with 60 µL […] CaCl2 and Tris-EDTA (TE) buffer (10 mM tris(hydroxymethyl)aminomethane hydrochloride (Tris HCl), 1 mM ethylenedinitrilotetraacetic acid (EDTA), pH 7.5) to a total volume of 480 µL. The mixture was added drop-wise to another tube containing 480 µL 2 × HEPES buffered saline (HBS buffer) (280 mM NaCl, 50 mM 4-(2-Hydroxyethyl)piperazine-1-ethanesulfonic acid (HEPES), 1.5 mM NaHPO4, pH 7.2) and left for 45 min at room temperature for DNA precipitation. Afterwards, the precipitate was added carefully to the cells and cells were incubated for 5 hours at normal culture conditions. The transfection was stopped by change of the DNA-containing medium with 20 mL of fresh cell culture medium.
Seeding of the cells in 96 well plates: One day after transfection, cells were harvested using trypsin as described above. The cells were seeded in a poly-D-lysine coated clear 96 well plate. 100 µL cell suspension 350.000 cells/mL was added. 3H-myo-inositol (5µL/mL) was added to each well yielding a concentration of 35000 cells/well. The cells were incubated overnight before assay procedure the following day.
IP3 SPA-ysi assay: The media was removed and the plates were washed with 200 µL of Hank's balanced salt solution (HBSS) (Gibco, Life Technologies). 100 µL of HBSS/10 mM LiCl was added and the plates were incubated 15 min at 37°C. 5 µL ligand was added to each well and the plate was incubated at 37°C for 70-90 min (incubation time was approximately 1 h and 16 min for all plates). The plates were placed on ice and 50 µL formic acid (10 mM) was added to each well. The plates was left on ice for at least 30 min. 20 µL was then transferred to a white 96 well plate and 80 µL yttrium silicate (YSi) SPA-beads RPNQ0010 (Perkin Elmer) solution (0.0125 g/mL) is added to each well. The plates were sealed and shaken on high speed for 30 min, then centrifuged for 5 min at 1500 rpm and counted with 8 hours delay in the top counter. […]

Neuromedin U receptor 1 = target: T2, Neuromedin U receptor 1 (UniProt Q9HB89 1-426, limits assumed); assay: cell-based or functional assay
T2 sequence (looked up): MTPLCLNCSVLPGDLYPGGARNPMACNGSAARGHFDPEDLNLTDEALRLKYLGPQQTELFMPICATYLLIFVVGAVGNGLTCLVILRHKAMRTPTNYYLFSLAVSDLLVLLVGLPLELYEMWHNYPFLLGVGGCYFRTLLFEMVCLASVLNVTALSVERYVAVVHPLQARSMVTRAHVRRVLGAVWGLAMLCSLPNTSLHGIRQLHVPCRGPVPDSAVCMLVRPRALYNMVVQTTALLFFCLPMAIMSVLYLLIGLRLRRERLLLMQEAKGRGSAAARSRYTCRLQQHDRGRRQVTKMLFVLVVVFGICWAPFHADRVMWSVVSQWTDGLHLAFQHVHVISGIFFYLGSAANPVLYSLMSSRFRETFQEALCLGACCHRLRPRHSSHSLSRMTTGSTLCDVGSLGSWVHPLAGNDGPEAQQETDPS

- EC50 [1]: 0.0943 µM
Molecule: CCCCCCCCCCCCCCCC(=O)N[C@@H](CCC(=O)NCCCC[C@H](NC(=O)[C@H](CCC(N)=O)NC(=O)[C@H](Cc1ccccc1)NC(=O)[C@H](CCC(=O)O)NC(=O)[C@H](CCC(=O)O)NC(=O)[C@H](CC(=O)O)NC(=O)[C@@H](NC(=O)[C@H](CCCNC(=N)N)NC(=O)[C@@H](N)Cc1ccccc1)C(C)C)C(=O)N1CCC[C@H]1C(=O)N[C@@H](Cc1ccccc1)C(=O)N[C@@H](C)C(=O)N[C@@H](CO)C(=O)N[C@@H](CCC(N)=O)C(=O)N[C@@H](CO)C(=O)N[C@@H](CCCNC(=N)N)C(=O)NCC(=O)N[C@@H](Cc1ccc(O)cc1)C(=O)N[C@@H](Cc1ccccc1)C(=O)N[C@@H](CC(C)C)C(=O)N[C@@H](Cc1ccccc1)C(=O)N[C@@H](CCCNC(=N)N)C(=O)N1CCC[C@H]1C(=O)N[C@@H](CCCNC(=N)N)C(=O)N[C@@H](CC(N)=O)C(N)=O)C(=O)O [SEQ ID NO 11] (H-FRVDEEFQK([γGlu-Palmitoyl])PFASQSRGYFLFRPRN-NH2)

- EC50 [1]: 0.00426 µM
Molecule: H-FRVDEEFQSPFASQSRGYFLFRPRN-NH2 [Human NMU, reference compound]

- NMUR1 cAMP EC50 (Neuromedin U receptor 1): 0.0455 µM
B2: SEQ ID NO 17 (NMU analog acylated at K4) (peptide)
peptide: FRVK([γGlu-Palmitoyl])EEFQSPFASQSRGYFLFRPRN-NH2
modifications: N-terminus assumed
SMILES: CCCCCCCCCCCCCCCC(=O)N[C@@H](CCC(=O)NCCCC[C@H](NC(=O)[C@@H](NC(=O)[C@H](CCCNC(=N)N)NC(=O)[C@@H](N)Cc1ccccc1)C(C)C)C(=O)N[C@@H](CCC(=O)O)C(=O)N[C@@H](CCC(=O)O)C(=O)N[C@@H](Cc1ccccc1)C(=O)N[C@@H](CCC(N)=O)C(=O)N[C@@H](CO)C(=O)N1CCC[C@H]1C(=O)N[C@@H](Cc1ccccc1)C(=O)N[C@@H](C)C(=O)N[C@@H](CO)C(=O)N[C@@H](CCC(N)=O)C(=O)N[C@@H](CO)C(=O)N[C@@H](CCCNC(=N)N)C(=O)NCC(=O)N[C@@H](Cc1ccc(O)cc1)C(=O)N[C@@H](Cc1ccccc1)C(=O)N[C@@H](CC(C)C)C(=O)N[C@@H](Cc1ccccc1)C(=O)N[C@@H](CCCNC(=N)N)C(=O)N1CCC[C@H]1C(=O)N[C@@H](CCCNC(=N)N)C(=O)N[C@@H](CC(N)=O)C(N)=O)C(=O)O

- NMUR1 cAMP EC50 (Neuromedin U receptor 1): 0.00257 µM
Molecule: FRVDEEFQSPFASQSRGYFLFRPRN-NH2 [Human neuromedin U]

- NMUR1 cAMP EC50 (Neuromedin U receptor 1): 0.0515 µM
B5: SEQ ID NO 14 (NMU analog acylated at K6) (peptide)
peptide: FRVDEK([γGlu-Palmitoyl])FQSPFASQSRGYFLFRPRN-NH2
modifications: N-terminus assumed
SMILES: CCCCCCCCCCCCCCCC(=O)N[C@@H](CCC(=O)NCCCC[C@H](NC(=O)[C@H](CCC(=O)O)NC(=O)[C@H](CC(=O)O)NC(=O)[C@@H](NC(=O)[C@H](CCCNC(=N)N)NC(=O)[C@@H](N)Cc1ccccc1)C(C)C)C(=O)N[C@@H](Cc1ccccc1)C(=O)N[C@@H](CCC(N)=O)C(=O)N[C@@H](CO)C(=O)N1CCC[C@H]1C(=O)N[C@@H](Cc1ccccc1)C(=O)N[C@@H](C)C(=O)N[C@@H](CO)C(=O)N[C@@H](CCC(N)=O)C(=O)N[C@@H](CO)C(=O)N[C@@H](CCCNC(=N)N)C(=O)NCC(=O)N[C@@H](Cc1ccc(O)cc1)C(=O)N[C@@H](Cc1ccccc1)C(=O)N[C@@H](CC(C)C)C(=O)N[C@@H](Cc1ccccc1)C(=O)N[C@@H](CCCNC(=N)N)C(=O)N1CCC[C@H]1C(=O)N[C@@H](CCCNC(=N)N)C(=O)N[C@@H](CC(N)=O)C(N)=O)C(=O)O

The next lines start with the molecule.

B1: SEQ ID NO 11 (NMU analog acylated at K9) (peptide)
peptide: FRVDEEFQK([γGlu-Palmitoyl])PFASQSRGYFLFRPRN-NH2
modifications: N-terminus assumed
SMILES: CCCCCCCCCCCCCCCC(=O)N[C@@H](CCC(=O)NCCCC[C@H](NC(=O)[C@H](CCC(N)=O)NC(=O)[C@H](Cc1ccccc1)NC(=O)[C@H](CCC(=O)O)NC(=O)[C@H](CCC(=O)O)NC(=O)[C@H](CC(=O)O)NC(=O)[C@@H](NC(=O)[C@H](CCCNC(=N)N)NC(=O)[C@@H](N)Cc1ccccc1)C(C)C)C(=O)N1CCC[C@H]1C(=O)N[C@@H](Cc1ccccc1)C(=O)N[C@@H](C)C(=O)N[C@@H](CO)C(=O)N[C@@H](CCC(N)=O)C(=O)N[C@@H](CO)C(=O)N[C@@H](CCCNC(=N)N)C(=O)NCC(=O)N[C@@H](Cc1ccc(O)cc1)C(=O)N[C@@H](Cc1ccccc1)C(=O)N[C@@H](CC(C)C)C(=O)N[C@@H](Cc1ccccc1)C(=O)N[C@@H](CCCNC(=N)N)C(=O)N1CCC[C@H]1C(=O)N[C@@H](CCCNC(=N)N)C(=O)N[C@@H](CC(N)=O)C(N)=O)C(=O)O
- NMUR1 cAMP EC50 (Neuromedin U receptor 1): 0.074 µM

B3: SEQ ID NO 8 (NMU analog acylated at K13) (peptide)
peptide: FRVDEEFQSPFAK([γGlu-Palmitoyl])QSRGYFLFRPRN-NH2
modifications: N-terminus assumed
SMILES: CCCCCCCCCCCCCCCC(=O)N[C@@H](CCC(=O)NCCCC[C@H](NC(=O)[C@H](C)NC(=O)[C@H](Cc1ccccc1)NC(=O)[C@@H]1CCCN1C(=O)[C@H](CO)NC(=O)[C@H](CCC(N)=O)NC(=O)[C@H](Cc1ccccc1)NC(=O)[C@H](CCC(=O)O)NC(=O)[C@H](CCC(=O)O)NC(=O)[C@H](CC(=O)O)NC(=O)[C@@H](NC(=O)[C@H](CCCNC(=N)N)NC(=O)[C@@H](N)Cc1ccccc1)C(C)C)C(=O)N[C@@H](CCC(N)=O)C(=O)N[C@@H](CO)C(=O)N[C@@H](CCCNC(=N)N)C(=O)NCC(=O)N[C@@H](Cc1ccc(O)cc1)C(=O)N[C@@H](Cc1ccccc1)C(=O)N[C@@H](CC(C)C)C(=O)N[C@@H](Cc1ccccc1)C(=O)N[C@@H](CCCNC(=N)N)C(=O)N1CCC[C@H]1C(=O)N[C@@H](CCCNC(=N)N)C(=O)N[C@@H](CC(N)=O)C(N)=O)C(=O)O
- NMUR1 cAMP EC50 (Neuromedin U receptor 1): 0.114 µM

B4: SEQ ID NO 5 (NMU analog acylated at K15) (peptide)
peptide: FRVDEEFQSPFASQK([γGlu-Palmitoyl])RGYFLFRPRN-NH2
modifications: N-terminus assumed
SMILES: CCCCCCCCCCCCCCCC(=O)N[C@@H](CCC(=O)NCCCC[C@H](NC(=O)[C@H](CCC(N)=O)NC(=O)[C@H](CO)NC(=O)[C@H](C)NC(=O)[C@H](Cc1ccccc1)NC(=O)[C@@H]1CCCN1C(=O)[C@H](CO)NC(=O)[C@H](CCC(N)=O)NC(=O)[C@H](Cc1ccccc1)NC(=O)[C@H](CCC(=O)O)NC(=O)[C@H](CCC(=O)O)NC(=O)[C@H](CC(=O)O)NC(=O)[C@@H](NC(=O)[C@H](CCCNC(=N)N)NC(=O)[C@@H](N)Cc1ccccc1)C(C)C)C(=O)N[C@@H](CCCNC(=N)N)C(=O)NCC(=O)N[C@@H](Cc1ccc(O)cc1)C(=O)N[C@@H](Cc1ccccc1)C(=O)N[C@@H](CC(C)C)C(=O)N[C@@H](Cc1ccccc1)C(=O)N[C@@H](CCCNC(=N)N)C(=O)N1CCC[C@H]1C(=O)N[C@@H](CCCNC(=N)N)C(=O)N[C@@H](CC(N)=O)C(N)=O)C(=O)O
- NMUR1 cAMP EC50 (Neuromedin U receptor 1): 0.195 µM
